These results are taken from article PMC3068996.

The target in this experiment is recombinant GST-tagged TgNF3 (Toxoplasma gondii nuclear factor 3) (T. gondii). Briefly: pull-down.

In the case of “purified core histones from HeLa cells (H3, H4, H2A/H2B) (from UniProt P68431 1-136; P62805 1-103; P0C0S8 1-130; P62807 1-126) (complex)”, the percent of input bound was 25%.
